# B1: Ubiquitin-protein ligase (Homo sapiens), Q05086-2 (parent)
# chain: MKRAAAKHLIERYYHQLTEGCGNEACTNEFCASCPTFLRMDNNAAAIKALELYKINAKLCDPHPSKKGASSAYLENSKGAPNNSCSEIKMNKKGARIDFKDVTYLTEEKVYEILELCREREDYSPLIRVIGRVFSSAEALVQSFRKVKQHTKEELKSLQAKDEDKDEDEKEKAACSAAAMEEDSEASSSRIGDSSQGDNNLQKLGPDDVSVDIDAIRRVYTRLLSNEKIETAFLNALVYLSPNVECDLTYHNVYSRDPNYLNLFIIVMENRNLHSPEYLEMALPLFCKAMSKLPLAAQGKLIRLWSKYNADQIRRMMETFQQLITYKVISNEFNSRNLVNDDDAIVAASKCLKMVYYANVVGGEVDTNHNEEDDEEPIPESSELTLQELLGEERRNKKGPRVDPLETELGVKTLDCRKPLIPFEEFINEPLNEVLEMDKDYTFFKVETENKFSFMTCPFILNAVTKNLGLYYDNRIRMYSERRITVLYSLVQGQQLNPYLRLKVRRDHIIDDALVRLEMIAMENPADLKKQLYVEFEGEQGVDEGGVSKEFFQLVVEEIFNPDIGMFTYDESTKLFWFNPSSFETEGQFTLIGIVLGLAIYNNCILDVHFPMVVYRKLMGKKGTFRDLGDSHPVLYQSLKDLLEYEGNVEDDMMITFQISQTDLFGNPMMYDLKENGDKIPITNENRKEFVNLYSDYILNKSVEKQFKAFRRGFHMVTNESPLKYLFRPEEIELLICGSRNLDFQALEETTEYDGGYTRDSVLIREFWEIVHSFTDEQKRLFLQFTTGTDRAPVGGLGKLKMIIAKNGPDTERLPTSHTCFNVLLLPEYSSKEKLKERLLKAITYAKGFGML
# partner: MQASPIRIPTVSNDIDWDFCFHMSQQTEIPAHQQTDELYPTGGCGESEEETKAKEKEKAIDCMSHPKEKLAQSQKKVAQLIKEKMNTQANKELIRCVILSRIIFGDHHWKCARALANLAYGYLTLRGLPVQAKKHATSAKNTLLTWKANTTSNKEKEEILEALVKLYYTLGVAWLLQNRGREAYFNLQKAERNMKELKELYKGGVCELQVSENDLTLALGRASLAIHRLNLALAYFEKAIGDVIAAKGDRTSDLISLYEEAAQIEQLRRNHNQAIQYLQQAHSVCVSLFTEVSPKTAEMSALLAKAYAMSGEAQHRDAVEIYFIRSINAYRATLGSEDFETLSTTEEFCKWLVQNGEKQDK
# B2: Ubiquitin-protein ligase (Homo sapiens), Q05086-3 (parent)
# chain: MATACKRSGEPQSDDIEASRMKRAAAKHLIERYYHQLTEGCGNEACTNEFCASCPTFLRMDNNAAAIKALELYKINAKLCDPHPSKKGASSAYLENSKGAPNNSCSEIKMNKKGARIDFKDVTYLTEEKVYEILELCREREDYSPLIRVIGRVFSSAEALVQSFRKVKQHTKEELKSLQAKDEDKDEDEKEKAACSAAAMEEDSEASSSRIGDSSQGDNNLQKLGPDDVSVDIDAIRRVYTRLLSNEKIETAFLNALVYLSPNVECDLTYHNVYSRDPNYLNLFIIVMENRNLHSPEYLEMALPLFCKAMSKLPLAAQGKLIRLWSKYNADQIRRMMETFQQLITYKVISNEFNSRNLVNDDDAIVAASKCLKMVYYANVVGGEVDTNHNEEDDEEPIPESSELTLQELLGEERRNKKGPRVDPLETELGVKTLDCRKPLIPFEEFINEPLNEVLEMDKDYTFFKVETENKFSFMTCPFILNAVTKNLGLYYDNRIRMYSERRITVLYSLVQGQQLNPYLRLKVRRDHIIDDALVRLEMIAMENPADLKKQLYVEFEGEQGVDEGGVSKEFFQLVVEEIFNPDIGMFTYDESTKLFWFNPSSFETEGQFTLIGIVLGLAIYNNCILDVHFPMVVYRKLMGKKGTFRDLGDSHPVLYQSLKDLLEYEGNVEDDMMITFQISQTDLFGNPMMYDLKENGDKIPITNENRKEFVNLYSDYILNKSVEKQFKAFRRGFHMVTNESPLKYLFRPEEIELLICGSRNLDFQALEETTEYDGGYTRDSVLIREFWEIVHSFTDEQKRLFLQFTTGTDRAPVGGLGKLKMIIAKNGPDTERLPTSHTCFNVLLLPEYSSKEKLKERLLKAITYAKGFGML
# B3: Ubiquitin-protein ligase (Homo sapiens), Q05086-3 (parent)
# chain: B2 chain
# partner: B1 partner
# B4: Ubiquitin-protein ligase (Homo sapiens), Q05086-1 (parent)
# chain: MEKLHQCYWKSGEPQSDDIEASRMKRAAAKHLIERYYHQLTEGCGNEACTNEFCASCPTFLRMDNNAAAIKALELYKINAKLCDPHPSKKGASSAYLENSKGAPNNSCSEIKMNKKGARIDFKDVTYLTEEKVYEILELCREREDYSPLIRVIGRVFSSAEALVQSFRKVKQHTKEELKSLQAKDEDKDEDEKEKAACSAAAMEEDSEASSSRIGDSSQGDNNLQKLGPDDVSVDIDAIRRVYTRLLSNEKIETAFLNALVYLSPNVECDLTYHNVYSRDPNYLNLFIIVMENRNLHSPEYLEMALPLFCKAMSKLPLAAQGKLIRLWSKYNADQIRRMMETFQQLITYKVISNEFNSRNLVNDDDAIVAASKCLKMVYYANVVGGEVDTNHNEEDDEEPIPESSELTLQELLGEERRNKKGPRVDPLETELGVKTLDCRKPLIPFEEFINEPLNEVLEMDKDYTFFKVETENKFSFMTCPFILNAVTKNLGLYYDNRIRMYSERRITVLYSLVQGQQLNPYLRLKVRRDHIIDDALVRLEMIAMENPADLKKQLYVEFEGEQGVDEGGVSKEFFQLVVEEIFNPDIGMFTYDESTKLFWFNPSSFETEGQFTLIGIVLGLAIYNNCILDVHFPMVVYRKLMGKKGTFRDLGDSHPVLYQSLKDLLEYEGNVEDDMMITFQISQTDLFGNPMMYDLKENGDKIPITNENRKEFVNLYSDYILNKSVEKQFKAFRRGFHMVTNESPLKYLFRPEEIELLICGSRNLDFQALEETTEYDGGYTRDSVLIREFWEIVHSFTDEQKRLFLQFTTGTDRAPVGGLGKLKMIIAKNGPDTERLPTSHTCFNVLLLPEYSSKEKLKERLLKAITYAKGFGML
# B5: Ubiquitin-protein ligase (Homo sapiens), Q05086-1 (parent)
# chain: B4 chain
# partner: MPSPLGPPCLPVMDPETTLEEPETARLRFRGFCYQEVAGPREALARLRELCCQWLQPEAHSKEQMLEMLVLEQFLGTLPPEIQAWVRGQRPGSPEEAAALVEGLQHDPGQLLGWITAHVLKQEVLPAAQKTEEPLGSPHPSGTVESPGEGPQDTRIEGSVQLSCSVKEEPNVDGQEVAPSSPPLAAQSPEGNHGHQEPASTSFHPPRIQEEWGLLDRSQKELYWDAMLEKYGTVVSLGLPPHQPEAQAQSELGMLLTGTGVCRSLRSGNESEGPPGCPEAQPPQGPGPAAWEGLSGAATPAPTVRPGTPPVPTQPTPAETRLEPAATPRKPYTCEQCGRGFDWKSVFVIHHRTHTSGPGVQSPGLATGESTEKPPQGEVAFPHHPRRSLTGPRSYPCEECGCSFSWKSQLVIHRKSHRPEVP
# Variants of: B1
# Settings: with TTC23L
row,Variant,effect of a mutation on the interaction
1,C820A,causing an interaction

# Variants of: B2
# Settings: with ZNF250, P15622-3
# Target sequence in this assay (P15622 other isoform, or with tags, fused parts or gaps): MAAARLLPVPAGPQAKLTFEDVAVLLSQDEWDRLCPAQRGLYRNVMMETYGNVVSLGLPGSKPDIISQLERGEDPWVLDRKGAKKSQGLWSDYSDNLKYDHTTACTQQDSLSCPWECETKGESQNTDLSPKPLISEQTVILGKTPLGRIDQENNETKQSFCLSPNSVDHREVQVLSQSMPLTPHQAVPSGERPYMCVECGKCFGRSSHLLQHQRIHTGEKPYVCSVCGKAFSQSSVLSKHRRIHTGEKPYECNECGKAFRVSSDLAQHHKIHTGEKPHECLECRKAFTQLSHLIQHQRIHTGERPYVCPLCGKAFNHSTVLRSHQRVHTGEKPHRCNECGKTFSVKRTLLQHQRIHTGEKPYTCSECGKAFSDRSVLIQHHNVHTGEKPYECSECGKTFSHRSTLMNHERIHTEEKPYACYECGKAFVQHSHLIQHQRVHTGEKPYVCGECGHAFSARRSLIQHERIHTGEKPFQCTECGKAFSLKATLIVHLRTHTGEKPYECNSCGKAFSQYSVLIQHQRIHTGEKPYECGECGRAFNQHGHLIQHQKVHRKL
row,Variant,effect of a mutation on the interaction
1,C840A,causing an interaction

# Variants of: B2
# Settings: with PAX6, P26367-1
# Target sequence in this assay (P26367 whole entry): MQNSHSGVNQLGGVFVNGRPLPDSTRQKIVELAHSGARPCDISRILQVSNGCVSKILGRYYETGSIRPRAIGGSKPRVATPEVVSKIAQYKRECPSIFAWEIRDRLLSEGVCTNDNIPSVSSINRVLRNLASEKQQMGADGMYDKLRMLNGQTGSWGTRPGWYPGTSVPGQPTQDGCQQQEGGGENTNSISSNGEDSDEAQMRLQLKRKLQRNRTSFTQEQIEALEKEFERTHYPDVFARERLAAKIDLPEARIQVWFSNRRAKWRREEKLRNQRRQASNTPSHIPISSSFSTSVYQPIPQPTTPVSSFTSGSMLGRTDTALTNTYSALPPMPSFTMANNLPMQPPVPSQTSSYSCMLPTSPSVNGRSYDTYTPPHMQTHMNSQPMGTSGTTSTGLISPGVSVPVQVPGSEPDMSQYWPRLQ
row,Variant,effect of a mutation on the interaction
1,C840A,causing an interaction

# Variants of: B2
# Settings: with magac_human MAGEA12, P43365
# Target sequence in this assay (P43365 whole entry): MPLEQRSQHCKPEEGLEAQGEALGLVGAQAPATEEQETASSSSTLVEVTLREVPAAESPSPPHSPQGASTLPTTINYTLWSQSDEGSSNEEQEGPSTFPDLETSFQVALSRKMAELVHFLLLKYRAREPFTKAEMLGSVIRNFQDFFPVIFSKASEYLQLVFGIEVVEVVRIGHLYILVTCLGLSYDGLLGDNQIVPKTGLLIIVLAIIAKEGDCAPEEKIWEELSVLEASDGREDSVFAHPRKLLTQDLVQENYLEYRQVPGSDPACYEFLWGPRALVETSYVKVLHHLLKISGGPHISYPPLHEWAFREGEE
row,Variant,effect of a mutation on the interaction
1,C840A,with no effect

# Variants of: B2
# Settings: with PSMD4, P55036-1
# Target sequence in this assay (P55036 whole entry): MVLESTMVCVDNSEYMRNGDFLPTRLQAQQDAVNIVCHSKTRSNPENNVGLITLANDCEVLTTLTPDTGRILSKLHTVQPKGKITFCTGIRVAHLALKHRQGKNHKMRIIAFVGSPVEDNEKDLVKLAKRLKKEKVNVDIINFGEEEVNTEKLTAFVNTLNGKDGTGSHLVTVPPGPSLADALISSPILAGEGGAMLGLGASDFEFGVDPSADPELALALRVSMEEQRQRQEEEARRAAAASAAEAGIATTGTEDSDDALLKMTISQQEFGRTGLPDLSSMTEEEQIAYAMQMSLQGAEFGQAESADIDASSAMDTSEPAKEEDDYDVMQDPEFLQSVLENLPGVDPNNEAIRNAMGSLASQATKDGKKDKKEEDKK
row,Variant,effect of a mutation on the interaction
1,C840A,with no effect

# Variants of: B2
# Settings: with PAX5, Q02548-1
# Target sequence in this assay (Q02548 whole entry): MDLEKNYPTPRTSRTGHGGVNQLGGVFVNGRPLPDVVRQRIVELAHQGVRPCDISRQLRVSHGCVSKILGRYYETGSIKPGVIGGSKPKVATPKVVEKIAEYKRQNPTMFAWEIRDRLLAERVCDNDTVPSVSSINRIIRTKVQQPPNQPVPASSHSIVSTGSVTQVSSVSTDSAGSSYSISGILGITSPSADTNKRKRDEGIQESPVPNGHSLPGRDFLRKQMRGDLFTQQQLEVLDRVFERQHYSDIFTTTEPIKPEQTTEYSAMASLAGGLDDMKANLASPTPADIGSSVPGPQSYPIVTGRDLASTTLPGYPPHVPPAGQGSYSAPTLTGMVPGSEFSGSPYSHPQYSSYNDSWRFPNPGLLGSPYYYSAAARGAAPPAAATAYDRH
row,Variant,effect of a mutation on the interaction
1,C840A,causing an interaction

# Variants of: B2
# Settings: with PTCD3, Q96EY7-1
row,Variant,effect of a mutation on the interaction
1,C840A,with no effect

# Variants of: B2
# Settings: with ubql2_human UBQLN2, Q9UHD9
# Target sequence in this assay (Q9UHD9 whole entry): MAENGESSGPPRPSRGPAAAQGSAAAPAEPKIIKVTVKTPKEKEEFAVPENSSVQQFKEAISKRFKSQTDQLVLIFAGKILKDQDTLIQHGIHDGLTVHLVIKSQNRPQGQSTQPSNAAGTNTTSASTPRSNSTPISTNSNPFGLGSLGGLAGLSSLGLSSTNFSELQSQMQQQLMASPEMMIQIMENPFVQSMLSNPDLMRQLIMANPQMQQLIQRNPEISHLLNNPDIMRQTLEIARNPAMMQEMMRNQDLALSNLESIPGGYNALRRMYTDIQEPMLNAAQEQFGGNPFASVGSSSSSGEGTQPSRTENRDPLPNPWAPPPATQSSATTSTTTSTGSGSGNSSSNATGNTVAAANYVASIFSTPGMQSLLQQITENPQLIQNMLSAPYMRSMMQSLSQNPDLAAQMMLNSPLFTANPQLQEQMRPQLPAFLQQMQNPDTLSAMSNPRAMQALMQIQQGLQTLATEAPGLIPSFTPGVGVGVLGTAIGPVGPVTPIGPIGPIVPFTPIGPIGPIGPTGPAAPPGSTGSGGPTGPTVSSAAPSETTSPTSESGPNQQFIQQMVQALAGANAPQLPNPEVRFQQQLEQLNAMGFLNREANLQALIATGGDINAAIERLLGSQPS
row,Variant,effect of a mutation on the interaction
1,C840A,with no effect

# Variants of: B2
# Settings: with UBQLN1, Q9UMX0-1
# Target sequence in this assay (Q9UMX0 whole entry): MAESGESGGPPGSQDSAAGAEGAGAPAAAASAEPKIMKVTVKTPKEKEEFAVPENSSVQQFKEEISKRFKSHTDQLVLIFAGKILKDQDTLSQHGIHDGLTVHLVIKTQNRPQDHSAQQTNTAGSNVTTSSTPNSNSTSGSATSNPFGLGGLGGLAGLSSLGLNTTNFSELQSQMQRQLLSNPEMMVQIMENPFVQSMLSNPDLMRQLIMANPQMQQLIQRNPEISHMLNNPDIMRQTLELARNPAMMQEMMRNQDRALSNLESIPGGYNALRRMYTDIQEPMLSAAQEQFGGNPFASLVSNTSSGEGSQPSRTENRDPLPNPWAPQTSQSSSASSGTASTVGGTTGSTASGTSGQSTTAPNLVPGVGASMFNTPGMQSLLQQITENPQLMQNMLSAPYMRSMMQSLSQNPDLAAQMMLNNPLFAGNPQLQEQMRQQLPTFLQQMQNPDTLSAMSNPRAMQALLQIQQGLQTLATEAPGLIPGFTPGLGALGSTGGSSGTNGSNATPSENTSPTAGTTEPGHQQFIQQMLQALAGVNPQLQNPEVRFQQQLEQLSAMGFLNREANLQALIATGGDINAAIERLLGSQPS
row,Variant,effect of a mutation on the interaction
1,C840A,with no effect

# Variants of: B3
# Settings: with TTC23L
row,Variant,effect of a mutation on the interaction
1,C840A,causing an interaction

# Variants of: B4
# Settings: with ZNF250, P15622-3
# Target sequence in this assay (P15622 other isoform, or with tags, fused parts or gaps): as the sequence (P15622 other isoform, or with tags, fused parts or gaps) above
row,Variant,effect of a mutation on the interaction
1,C843A,causing an interaction

# Variants of: B4
# Settings: with PAX6, P26367-1
# Target sequence in this assay (P26367 whole entry): as the sequence (P26367 whole entry) above
row,Variant,effect of a mutation on the interaction
1,C843A,causing an interaction

# Variants of: B4
# Settings: with magac_human MAGEA12, P43365
# Target sequence in this assay (P43365 whole entry): as the sequence (P43365 whole entry) above
row,Variant,effect of a mutation on the interaction
1,C843A,causing an interaction

# Variants of: B4
# Settings: with PSMD4, P55036-1
# Target sequence in this assay (P55036 whole entry): as the sequence (P55036 whole entry) above
row,Variant,effect of a mutation on the interaction
1,C843A,with no effect

# Variants of: B4
# Settings: with PAX5, Q02548-1
# Target sequence in this assay (Q02548 whole entry): as the sequence (Q02548 whole entry) above
row,Variant,effect of a mutation on the interaction
1,C843A,causing an interaction

# Variants of: B4
# Settings: with PTCD3, Q96EY7-1
row,Variant,effect of a mutation on the interaction
1,C843A,with no effect

# Variants of: B4
# Settings: with ubql2_human UBQLN2, Q9UHD9
# Target sequence in this assay (Q9UHD9 whole entry): as the sequence (Q9UHD9 whole entry) above
row,Variant,effect of a mutation on the interaction
1,C843A,with no effect

# Variants of: B4
# Settings: with UBQLN1, Q9UMX0-1
# Target sequence in this assay (Q9UMX0 whole entry): as the sequence (Q9UMX0 whole entry) above
row,Variant,effect of a mutation on the interaction
1,C843A,with no effect

# Variants of: B5
# Settings: with ZNF446, Q9NWS9-2
row,Variant,effect of a mutation on the interaction
1,C843A,causing an interaction
